B1: LINE1-mini (parent)
chain: GGCAGAGCUCAACACAGCGUGGCAAAGUGGCUGUGGCUAGACUGCC

Variants of: B1
Assay: self-cleavage, relative activity (ratio to wild type); higher = more cleavage; in vitro, sequencing; the parent is a self-cleaving ribozyme

Variant | self-cleavage
C37G G44U | 0.07
C37G G44A | 0.04
C37G G44C | 0.03
C37U G40A | 0.14
C37U G40U | 0.16
C37U G40C | 0.24
U38A U43A | 0.03
U38A U43C | 0.13
U38G G44C | 0.06
U38G G44U | 0.03
U38G G44A | 0.03
C37U G44C | 0.05
C37U G44U | 0.25
C37U G44A | 0.1
C37A U38C | 0.03
C37A U38A | 0.04
C37A U38G | 0.03
C37A A39C | 0.12
C37A A39U | 0.22
C37A A39G | 0.05
C37A U43A | 0.13
C37A U43C | 0.05
C37A U43G | 0.08
G36U U38G | 0.02

Variant | self-cleavage
G36U U38C | 0.11
G36U U38A | 0.05
C37A C46A | 0.05
C37A C46G | 0.06
C37A C46U | 0.04
U38C C46U | 0.44
U38C C46A | 1.27
U38C C46G | 0.64
U38A A41G | 0.14
U38A A41U | 0.1
U38A A41C | 0.04
C37A A41G | 0.12
C37A A41U | 0.08
C37A A41C | 0.03
G36U G40U | 0.19
C37U C42U | 0.1
C37U C42G | 0.03
C37U C42A | 0.12
C37U A41U | 0.06
C37U A41G | 0.04
C37U A41C | 0.02
U38C A39C | 0.1
U38C A39U | 0.7
U38C A39G | 0.06

Variant | self-cleavage
C37G C46A | 0.02
C37G C46G | 0.17
C37G C46U | 0.04
C37G A41G | 0.03
C37G A41C | 0.02
C37G A41U | 0.03
U38A G40A | 0.17
U38A G40U | 0.18
U38A G40C | 0.09
U38C U43A | 0.04
U38C U43C | 0.11
U38C U43G | 0.07
U38C G40C | 0.06
U38C G40U | 0.1
U38C G40A | 0.07
C37U A39U | 0.04
C37U A39G | 0.02
C37U A39C | 0.14
C37A C42G | 0.06
C37A C42A | 0.05
C37A C42U | 0.16
U38C C42A | 0.07
U38C C42U | 0.07
U38C C42G | 0.15

Variant | self-cleavage
U38A C45U | 0.59
U38A C45A | 0.2
U38A C45G | 0.26
C37G A39C | 0.06
C37G A39G | 0.02
C37G A39U | 0.08
U38G A39U | 0.13
U38G A39C | 0.1
U38G A39G | 0.02
C37G U38C | 0.04
C37G U38G | 0.01
C37G U38A | 0.03
C37A G44U | 0.18
C37A G44A | 0.13
C37A G44C | 0.07
U38G C46G | 0.02
U38G C46U | 0.04
U38G C46A | 0.02
U38G G40C | 0.03
U38G G40A | 0.04
U38G G40U | 0.05
C37G C42A | 0.09
C37G C42G | 0.02
C37G C42U | 0.02

Variant | self-cleavage
U38C G44U | 0.27
U38C G44A | 0.3
U38C G44C | 0.32
U38G U43A | 0.02
U38G U43C | 0.05
U38G C42A | 0.03
U38G C42G | 0.02
U38G C42U | 0.03
C37G G40C | 0.08
C37G G40U | 0.08
C37G G40A | 0.08
G36U U43C | 0.06
G36U U43G | 0.1
G36U U43A | 0.04
C37U C46A | 0.07
C37U C46G | 0.04
C37U C46U | 0.06
U38A C46U | 0.3
U38A C46G | 0.38
U38A C46A | 0.35
C37U U43A | 0.11
C37U U43G | 0.11
C37U U43C | 0.06
C37A G40A | 0.19

Variant | self-cleavage
C37A G40C | 0.2
C37A G40U | 0.2
C37U | 0.07
C37A | 0.08
C37G | 0.05
U38C A41G | 0.11
U38C A41C | 0.04
U38C A41U | 0.13
U38G | 0.03
U38C | 0.6
U38A | 0.47
C37U C45U | 0.04
C37U C45A | 0.06
C37U C45G | 0.08
C37G C45G | 0.08
C37G C45U | 0.03
C37G C45A | 0.03
C37G U43C | 0.09
C37G U43G | 0.05
C37G U43A | 0.07
U38A G44U | 0.17
U38A G44A | 0.28
U38A G44C | 0.09
U38A C42A | 0.1

Variant | self-cleavage
U38A C42G | 0.07
U38A C42U | 0.21
U38G A41C | 0.02
U38G A41U | 0.04
U38G A41G | 0.14
C37U U38A | 0.04
C37U U38G | 0.03
C37U U38C | 0.06
U38A A39C | 0.49
U38A A39U | 0.85
U38A A39G | 0.25
G36U G44U | 0.09
G36U G44C | 0.08
G36U G44A | 0.06
U38G C45A | 0.04
U38G C45G | 0.05
U38G C45U | 0.05
C37A C45G | 0.17
C37A C45A | 0.19
C37A C45U | 0.08
U38C C45U | 1.38
U38C C45A | 0.35
U38C C45G | 0.47
